Experimental data as given in patent publication US20130012451A1 (RESEARCH FOUNDATION OF STATE UNIVERSITY OF NEW YORK, published 2013).

Columns and labels:
[1] = molecular target: Matrix Metalloproteinase-9 (MMP-9), wild type (Homo sapiens (Human), UniProt P14780 20-707); assay: cell-based or functional assay
[2] = molecular target: T1, MMP-9 with a carboxy-terminal Myc tag (MMP-9/Myc) (Homo sapiens (Human), UniProt P14780 20-707); assay: co-immunoprecipitation, co-transfected COS-1 cells
T1 construct: Expressed from cDNA in COS-1 cells and secreted as proMMP-9; also called Myc-tagged MMP-9; proMMP-9/Myc; not shown: C-terminal Myc tag from the pcDNA3.1-myc vector
From the text: FIG. 4. Blade IV of the PEX domain of proMMP-9 is required for homodimerization and cell migration. (A) Ribbon diagram of MMP-9 PEX domain (PDB:1ITV). Each outermost β-strand from the four blades was swapped with the corresponding MMP-2 PEX domain sequences (upper panel). Lower panel: Schematic diagram of substitution mutations at the outermost 3-strands of four blade of MMP-9 by corresponding MMP-2 sequences. […] The conditioned medium was also examined by gelatin zymography (lower panel). […] (P-values reflect comparison with MMP-9 transfected cells: *P<0.05). (D) A peptide mimicking MMP-9 IVS4 abrogates MMP-9 dimerization examined by co-immunoprecipitation (upper panel). Total cell lysate (20 μg) was also examined by an immunoblotting assay using anti-HA antibody (lower panel). (E) Dose dependent inhibition of MMP-9-mediated cell migration by IVS4 peptides. No effect was found using scrambled peptides. COS-1 cells transfected with an empty vector or MMP-9 cDNAs were examined by a transwell chamber migration assay for 6 hours in the presence of DMSO control, specific and scramble peptides at different concentration. Each data point was performed in triplicate and the experiments was repeated three times (*P<0.05).
Each blade contains four anti-parallel […]-strands with peptide loops linking one strand to the next as illustrated in FIG. 1B. […]

| IC50 (potency; inhibition of MMP-9-induced cell migration, transwell assay) [1] | binding result [2] | Binder |
| --- | --- | --- |
| 50 µM |  | NQVDQVGY [IVS4 peptide (NQVDQVGY)] |
| 12 µM |  | SRPQGPFL [IS4 peptide (SRPQGPFL)] |
|  | no binding | MMP-9/IVS4 chimera (MMP-9 with the outermost β-strand of blade IV of the PEX domain, NQVDQVGY, replaced by MMP-2 KSVKFGS) (enzyme, also called MMP-9/Blade IV; MMP-9/blade IV mutant) APRQRQSTLVLFPGDLRTNLTDRQLAEEYLYRYGYTRVAEMRGESKSLGPALLLLQKQLSLPETGELDSATLKAMRTPRCGVPDLGRFQTFEGDLKWHHHNITYWIQNYSEDLPRAVIDDAFARAFALWSAVTPLTFTRVYSRDADIVIQFGVAEHGDGYPFDGKDGLLAHAFPPGPGIQGDAHFDDDELWSLGKGVVVPTRFGNADGAACHFPFIFEGRSYSACTTDGRSDGLPWCSTTANYDTDDRFGFCPSERLYTQDGNADGKPCQFPFIFQGQSYSACTTDGRSDGYRWCATTANYDRDKLFGFCPTRADSTVMGGNSAGELCVFPFTFLGKEYSTCTSEGRGDGRLWCATTSNFDSDKKWGFCPDQGYSLFLVAAHEFGHALGLDHSSVPEALMYPMYRFTEGPPLHKDDVNGIRHLYGPRPEPEPRPPTTTTPQPTAPPTVCPTGPPTVHPSERPTAGPTGPPSAGPTGPPTAGPSTATTVPLSPVDDACNVNIFDAIAEIGNQLYLFKDGKYWRFSEGRGSRPQGPFLIADKWPALPRKLDSVFEERLSKKLFFFSGRQVWVYTGASVLGPRRLDKLGLGADVAQVTGALRSGRGKMLLFSGRRLWRFDVKAQMVDPRSASEVDRMFPGVPLDTHDVFQYREKAYFCQDRFYWRVSSRSELKSVKFGSVTYDILQCPED |
